{"source": "paper PMC4638388", "about": "(Biochimica et biophysica acta, 2015)", "binders": {"B1": {"name": "SBP1-C (analyte of the surface plasmon resonance) (domain or fragment)", "chain": "GKRKGYYLAKKQKKEQMLEQNPEQNPEQNPEQNAQQNAQQNAQQNAQQNSQQNTQQNTQQNTQQKTQQNPQQNAQKTHNNNPQPNPQQKQLLEKPKDKLL"}}, "key": {"[1]": {"molecular_target": "T1, GST-tagged α4 repeat region of α-spectrin (human, UniProt P02549 370-475)", "T1 sequence (looked up)": "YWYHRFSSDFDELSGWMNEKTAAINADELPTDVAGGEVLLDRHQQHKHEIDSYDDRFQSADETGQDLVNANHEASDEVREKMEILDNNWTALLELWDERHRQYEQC", "assay": "SPR"}, "[2]": {"molecular_target": "GST-tagged 16 kDa domain of protein 4.1R (human)", "sequence (P11171 whole entry, the tested form may be a part)": "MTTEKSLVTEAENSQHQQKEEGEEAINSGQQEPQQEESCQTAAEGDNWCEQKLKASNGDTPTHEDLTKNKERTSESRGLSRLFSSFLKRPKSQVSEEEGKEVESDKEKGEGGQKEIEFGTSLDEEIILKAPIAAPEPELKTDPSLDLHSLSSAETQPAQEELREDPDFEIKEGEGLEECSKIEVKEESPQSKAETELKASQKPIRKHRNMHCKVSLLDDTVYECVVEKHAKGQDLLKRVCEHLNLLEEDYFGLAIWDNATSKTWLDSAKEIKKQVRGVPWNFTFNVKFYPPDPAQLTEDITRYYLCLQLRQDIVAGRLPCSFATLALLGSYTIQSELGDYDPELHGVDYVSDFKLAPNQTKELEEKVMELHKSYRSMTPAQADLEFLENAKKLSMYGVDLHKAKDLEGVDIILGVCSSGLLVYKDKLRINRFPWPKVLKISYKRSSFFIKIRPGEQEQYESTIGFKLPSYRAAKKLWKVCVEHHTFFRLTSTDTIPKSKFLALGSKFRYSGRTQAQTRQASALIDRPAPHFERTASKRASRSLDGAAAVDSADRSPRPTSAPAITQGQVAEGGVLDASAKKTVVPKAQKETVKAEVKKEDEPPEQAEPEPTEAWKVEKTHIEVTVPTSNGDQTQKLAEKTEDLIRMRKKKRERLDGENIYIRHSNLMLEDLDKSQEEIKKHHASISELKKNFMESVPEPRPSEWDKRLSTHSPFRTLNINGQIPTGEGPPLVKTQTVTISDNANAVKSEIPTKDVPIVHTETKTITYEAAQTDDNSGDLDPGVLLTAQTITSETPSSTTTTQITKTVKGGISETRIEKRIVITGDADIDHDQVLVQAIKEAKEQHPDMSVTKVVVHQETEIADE", "assay": "SPR"}}}
{"binder": "B1", "values": [{"measurement": "Ka", "setting": "[1]", "result": "5.7e+07 ± 1.28", "unit": "M⁻¹"}, {"measurement": "Kd", "setting": "[1]", "result": 20.4, "unit": "nM"}, {"measurement": "koff", "setting": "[1]", "result": "0.00031 ± 0.42", "unit": "s⁻¹"}, {"measurement": "Ka", "setting": "[2]", "result": "1.73e+07", "unit": "M⁻¹"}, {"measurement": "Kd", "setting": "[2]", "result": 58.5, "unit": "nM"}, {"measurement": "koff", "setting": "[2]", "result": 0.000459, "unit": "s⁻¹"}]}
